Test results: US20100196385A1 (AstraZeneca / MedImmune, published 2010)
Where a chain is given by its changes, count along the chain named.

What was measured:
full length human DLL4 [1] = target: T1, full length human DLL4 (human, UniProt Q9NR61 27-685); assay: FMAT competition, supernatant vs Alexa-647 human Notch1/Fc, 293T cells with human DLL4; FMAT competition with Alexa-647 human Notch1/Fc, native human DLL4 on 293T cells, 4 C, n = 2
T1 construct: whole, on cells; also called native DLL4 expressed in HEK293 cells
T1 sequence (Q9NR61 27-685): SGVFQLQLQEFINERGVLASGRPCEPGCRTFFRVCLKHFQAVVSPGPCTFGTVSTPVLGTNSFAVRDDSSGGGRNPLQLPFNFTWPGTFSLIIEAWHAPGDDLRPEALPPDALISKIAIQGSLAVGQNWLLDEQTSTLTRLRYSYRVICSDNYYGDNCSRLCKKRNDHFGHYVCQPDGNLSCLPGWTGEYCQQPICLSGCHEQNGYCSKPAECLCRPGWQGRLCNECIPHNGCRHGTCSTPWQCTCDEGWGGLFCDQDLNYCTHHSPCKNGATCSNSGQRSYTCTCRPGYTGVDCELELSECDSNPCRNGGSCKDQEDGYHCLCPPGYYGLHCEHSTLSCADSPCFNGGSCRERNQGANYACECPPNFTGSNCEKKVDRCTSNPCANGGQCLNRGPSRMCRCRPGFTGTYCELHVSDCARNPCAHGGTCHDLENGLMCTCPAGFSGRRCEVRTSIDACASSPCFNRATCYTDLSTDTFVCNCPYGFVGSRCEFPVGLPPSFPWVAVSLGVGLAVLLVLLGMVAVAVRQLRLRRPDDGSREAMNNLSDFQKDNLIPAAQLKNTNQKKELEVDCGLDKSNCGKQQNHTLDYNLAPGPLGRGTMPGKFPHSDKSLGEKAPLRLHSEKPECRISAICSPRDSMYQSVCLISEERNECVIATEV
Method: (§1) Transfected and untransfected 239T cells were reconstituted in PBS containing 2% FCS and 5000 transfected and 17500 non-transfected cells were plated in 20 μl into wells of a 384-well tissue culture plate (Corning Costar, catalog #3712). Subsequently, 20 μl of hybridoma supernatant was added and plates were incubated at 4° C. for 1 h, at which time 20 μl of Alexa-647 labeled human Notch1/Fc was added at a final concentration of 6.7 ng/ml. After a further 3 h incubation at 4° C., the amount of bound Notch1/Fc was determined by reading the fluorescence in each well using an FMAT 8200 instrument (Applied Biosystems). Results are expressed as % inhibitions with the minimum inhibition in the assay being determined by the effects of non-DLL4 binding supernatants prepared in a similar way as described in example 2, and the maximum inhibition being defined as the signal obtained in the presence of a saturating concentration of unlabeled Notch1/Fc. N.T.=not tested

full length human DLL4 [2] = target: T1, full length human DLL4; assay: FMAT, hybridoma supernatant, 293T cells with human DLL4; FMAT, hybridoma supernatant, native full length human DLL4 on live 293T cells, room temperature
Method: Cells diluted in PBS containing 2% FBS were seeded at a density of 3000 expressing and 15000 mock transfected cells per well in 384 well plates (Corning Costar, catalog #3712). Immediately after plating, 15 or 20 μl/well of hybridoma supernatants and 10 μl/well of secondary antibody (Goat anti-human IgG Fc Cy5, final concentration 750 ng/ml) were added and plates incubated for 3 h at room temperature prior to reading the fluorescence on the FMAT 8200 instrument (Applied Biosystems). The binding of human Notch1/Fc chimera (R&D systems, catalog #3647-TK), diluted 1:2 from 2.86 μg/ml was used as a positive control for DLL4 and human Notch3/Fc chimera diluted from 10 μg/ml was used a positive control for binding to Jagged1. Results for 12 hybridoma supernatants showing binding of hybridoma supernatants to human/cynomolgus monkey DLL4 and human Jagged are shown in Table 3.

full length human DLL4 [3] = target: T1, full length human DLL4; assay: FMAT competition, purified antibody vs Alexa-647 human Notch1/Fc, 293T cells with human DLL4
In short: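 293T cells expressing full-length DLL4, mixed with untransfected cells, were preincubated 1 h at 4 °C with serially diluted purified antibody (from 5 μg/ml). Alexa-647 human Notch1/Fc (100 ng/ml stock) was then added for 3 h at 4 °C; bound Notch1/Fc measured by FMAT fluorescence.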

human Jagged1 [4] = target: T2, human Jagged1 (human, UniProt P78504 34-1218); assay: FACS, 5 µg/ml, 293T cells with human Jagged1 vs mock
T2 construct: whole, on cells
T2 sequence (P78504 34-1218): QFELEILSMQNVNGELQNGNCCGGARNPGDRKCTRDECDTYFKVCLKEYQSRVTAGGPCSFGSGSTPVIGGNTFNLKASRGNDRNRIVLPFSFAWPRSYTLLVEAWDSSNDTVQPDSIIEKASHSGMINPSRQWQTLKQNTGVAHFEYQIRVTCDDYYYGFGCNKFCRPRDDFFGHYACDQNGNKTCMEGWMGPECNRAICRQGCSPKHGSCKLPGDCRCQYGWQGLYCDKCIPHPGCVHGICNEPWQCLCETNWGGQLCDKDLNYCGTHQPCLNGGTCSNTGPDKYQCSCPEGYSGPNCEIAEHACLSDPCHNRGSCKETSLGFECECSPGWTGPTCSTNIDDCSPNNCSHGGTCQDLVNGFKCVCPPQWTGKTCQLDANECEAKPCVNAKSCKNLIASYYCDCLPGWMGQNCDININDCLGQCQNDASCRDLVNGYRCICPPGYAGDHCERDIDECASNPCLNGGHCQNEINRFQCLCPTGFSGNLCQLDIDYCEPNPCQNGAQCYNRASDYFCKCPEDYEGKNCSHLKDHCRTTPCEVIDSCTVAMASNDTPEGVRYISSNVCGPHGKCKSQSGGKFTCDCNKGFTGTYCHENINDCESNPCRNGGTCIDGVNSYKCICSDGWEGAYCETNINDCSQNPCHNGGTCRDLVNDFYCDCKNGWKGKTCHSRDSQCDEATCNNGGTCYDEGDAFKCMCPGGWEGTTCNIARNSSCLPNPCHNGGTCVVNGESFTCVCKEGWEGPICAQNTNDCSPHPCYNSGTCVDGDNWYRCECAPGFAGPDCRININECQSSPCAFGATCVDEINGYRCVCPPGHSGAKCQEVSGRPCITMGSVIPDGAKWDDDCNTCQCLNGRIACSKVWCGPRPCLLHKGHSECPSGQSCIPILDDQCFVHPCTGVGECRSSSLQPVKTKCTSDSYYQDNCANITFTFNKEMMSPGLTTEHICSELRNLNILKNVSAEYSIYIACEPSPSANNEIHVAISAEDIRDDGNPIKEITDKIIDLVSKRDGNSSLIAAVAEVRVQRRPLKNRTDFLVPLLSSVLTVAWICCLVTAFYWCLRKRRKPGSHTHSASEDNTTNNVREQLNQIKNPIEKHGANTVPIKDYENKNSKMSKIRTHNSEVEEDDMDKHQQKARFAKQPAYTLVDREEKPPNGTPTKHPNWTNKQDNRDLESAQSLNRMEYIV
In short: (§2)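 Read-out is the change in geometric mean fluorescence between mock-transfected and Jagged1- or Dll1-transfected cells. Anti-DLL4 antibodies bound to cells suspended in PBS containing 2% FCS during a 1 h incubation at 4 °C.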

human Jagged1 [5] = target: T2, human Jagged1; assay: FMAT, hybridoma supernatant, 293T cells with human Jagged1
In short: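 Transfected 293T cells (3000 expressing plus 15000 mock-transfected per well), in PBS with 2% FBS, were mixed with hybridoma supernatant and Cy5 goat anti-human IgG Fc (750 ng/ml final). After 3 h at room temperature, binding was read by FMAT fluorescence. Notch1/Fc served as positive control for DLL4 and Notch3/Fc for Jagged1.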

human Jagged1 [6] = target: T2, human Jagged1; assay: FACS, 5 µg/ml, 293T cells with human Jagged1
In short: as §2

human Dll1 [7] = target: T3, human Dll1 (human, UniProt O00548 18-723); assay: FACS, 15 µg/ml, 293T cells with human Dll1
T3 construct: whole, on cells
T3 sequence (looked up): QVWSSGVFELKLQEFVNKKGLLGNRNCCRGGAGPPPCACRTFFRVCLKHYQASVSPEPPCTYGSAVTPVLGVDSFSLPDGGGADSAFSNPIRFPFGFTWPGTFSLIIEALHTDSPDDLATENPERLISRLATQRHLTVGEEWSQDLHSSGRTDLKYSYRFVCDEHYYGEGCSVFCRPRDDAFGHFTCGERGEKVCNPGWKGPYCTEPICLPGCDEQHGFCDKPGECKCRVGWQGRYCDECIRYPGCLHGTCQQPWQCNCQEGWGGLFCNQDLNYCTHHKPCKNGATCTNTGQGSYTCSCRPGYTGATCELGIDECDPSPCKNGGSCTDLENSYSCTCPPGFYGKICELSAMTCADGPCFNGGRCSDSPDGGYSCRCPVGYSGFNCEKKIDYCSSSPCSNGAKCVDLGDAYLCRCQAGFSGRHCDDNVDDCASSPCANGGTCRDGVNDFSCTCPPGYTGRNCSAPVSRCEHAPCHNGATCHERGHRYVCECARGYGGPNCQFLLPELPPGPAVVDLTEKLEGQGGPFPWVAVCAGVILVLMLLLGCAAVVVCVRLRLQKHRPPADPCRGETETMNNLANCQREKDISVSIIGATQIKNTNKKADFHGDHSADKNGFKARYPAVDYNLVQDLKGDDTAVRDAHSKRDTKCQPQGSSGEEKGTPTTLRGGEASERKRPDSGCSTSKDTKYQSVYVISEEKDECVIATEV
In short: as §2

full length human DLL4 [8] = target: T1, full length human DLL4; assay: FMAT competition, supernatant vs Alexa-647 human Notch1/Fc, 293T cells with human DLL4; FMAT competition with Alexa-647 human Notch1/Fc, native human DLL4 on 293T cells, 4 C, n = 3
Method: as §1

human Dll1 [9] = target: T3, human Dll1; assay: FACS, 15 µg/ml, 293T cells with human Dll1 vs mock
In short: as §2

full length human DLL4 [10] = target: T1, full length human DLL4; assay: FACS competition vs human Notch1/Fc, HEK293 cells with human DLL4
Method: (§3) Further experiments were performed on selected antibodies using HEK293 cells that were stably transfected with either human, mouse or cynomolgus monkey DLL4 using retroviral constructs. In these experiments, anti-DLL4 antibodies (final concentration: 10-0.01 μg/ml) diluted in PBS containing 2% FCS were added to DLL4-expressing HEK 293 cells (50000 cells/well diluted in PBS containing 2% FCS) and incubated for 1 h at 4° C. Subsequently, Alexa-647 labeled human, rat or APC labeled mouse Notch1/Fc (e.g. R&D Systems, catalog #3647-TK-050, 1057-TK-050, 5267-TK-050, respectively) was added at a final concentration of 0.01-0.5 μg/ml and plates were incubated for a further 2 h at 4° C. prior to washing and reading on a FACSCalibur instrument.

[11] = target: T4, human soluble DLL4 (R&D systems catalog #1056-D4-050) (human, UniProt Q9NR61 27-524); assay: Biacore T100, antibody immobilised, soluble human DLL4 as analyte
T4 construct: Catalog number as printed; perhaps the same product as #1506-D4; also called antigen DLL4
T4 sequence (Q9NR61 27-524 limits assumed): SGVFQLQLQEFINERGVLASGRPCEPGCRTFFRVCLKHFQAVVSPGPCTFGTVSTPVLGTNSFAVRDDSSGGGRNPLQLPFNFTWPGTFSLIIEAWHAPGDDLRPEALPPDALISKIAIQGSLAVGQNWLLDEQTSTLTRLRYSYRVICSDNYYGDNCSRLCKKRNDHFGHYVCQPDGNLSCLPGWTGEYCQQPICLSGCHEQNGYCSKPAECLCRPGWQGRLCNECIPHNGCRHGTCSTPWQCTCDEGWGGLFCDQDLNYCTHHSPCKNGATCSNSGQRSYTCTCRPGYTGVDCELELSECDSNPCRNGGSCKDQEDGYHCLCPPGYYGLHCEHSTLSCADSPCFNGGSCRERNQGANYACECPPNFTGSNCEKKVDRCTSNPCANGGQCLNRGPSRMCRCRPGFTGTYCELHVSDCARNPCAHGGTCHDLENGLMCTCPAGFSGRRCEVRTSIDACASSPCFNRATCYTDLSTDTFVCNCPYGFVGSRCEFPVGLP
Method: For Biacore analysis, each purified anti-DLL4 antibody was immobilized on a CM5 sensor chip within a T100 using standard amine coupling. Immobilization levels were kept below 200 RU. The concentration of DLL4 was determined by UV-VIS spectroscopy using a molar absorptivity at 280 nm of 110, 440 M⁻¹cm⁻¹, which was calculated from the sequence of the protein using a method developed by Pace et al. (G. R. Grimsley and C. N. Pace (2003) in Current Protocols in Protein Science (John Wiley & Sons, Inc.), 3.1.1-3.1.9). The antigen DLL4 (R&D systems; human catalog #1056-D4-050 or mouse, catalog #1389-D4-050) was diluted to a starting concentration of 32-64 nM and tested in a 3-fold dilution series in triplicate. The running buffer contained HBS-P with 0.1 mg/ml BSA and binding responses were collected at 23° C. Bound complexes were regenerated with a 15 s pulse of 10 mM of sodium hydroxide. The response data were globally fitted with a simple 1:1 interaction model and Table 20 summarizes the kₐ, kd and KD estimates obtained for the anti-DLL4 antibodies when binding to human soluble DLL4 was assessed.

full length mouse DLL4 = target: T5, full length mouse DLL4 (mouse, UniProt Q9JI71 27-686); assay: FACS competition vs rat Notch1/Fc, HEK293 cells with mouse DLL4
T5 construct: whole, on cells
T5 sequence (Q9JI71 27-686): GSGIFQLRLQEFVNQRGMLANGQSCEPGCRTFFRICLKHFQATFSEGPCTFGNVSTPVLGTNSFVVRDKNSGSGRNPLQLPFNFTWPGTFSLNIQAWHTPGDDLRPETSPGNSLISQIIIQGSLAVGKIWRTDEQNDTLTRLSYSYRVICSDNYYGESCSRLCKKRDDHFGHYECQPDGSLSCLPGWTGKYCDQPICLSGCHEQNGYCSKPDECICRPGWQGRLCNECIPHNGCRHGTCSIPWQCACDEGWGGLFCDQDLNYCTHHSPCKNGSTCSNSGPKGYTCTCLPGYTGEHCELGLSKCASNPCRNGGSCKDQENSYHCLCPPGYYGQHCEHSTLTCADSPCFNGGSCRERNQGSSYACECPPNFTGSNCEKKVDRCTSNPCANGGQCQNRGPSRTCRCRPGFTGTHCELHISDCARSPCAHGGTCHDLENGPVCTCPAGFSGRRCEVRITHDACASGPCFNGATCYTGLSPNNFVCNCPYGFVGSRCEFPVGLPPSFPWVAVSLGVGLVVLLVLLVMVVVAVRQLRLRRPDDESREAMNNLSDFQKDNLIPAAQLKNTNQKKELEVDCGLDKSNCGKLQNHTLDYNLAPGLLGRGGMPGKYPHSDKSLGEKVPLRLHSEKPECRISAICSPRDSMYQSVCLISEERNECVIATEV
Method: as §3

full length human DLL4 [12] = target: T1, full length human DLL4; assay: FACS titration, HEK293 cells with human DLL4
Method: The binding affinities of the purified antibodies for DLL4 was estimated using is both FACS and BIAcore techniques. […] The cells were then washed and incubated with goat anti-human IgG-Fc-Cy5+5 μg/mL 7-Amino-Actinomycin (7AAD) for 30 minutes at 4° C.
In this equation, F=mean fluorescence, LT=total molecular mAb concentration, P′=proportionality constant that relates arbitrary fluorescence units to bound mAb, M=cellular concentration in molarity, n=number of receptors per cell, B=background signal, and KD=equilibrium dissociation constant. For each mAb titration curve an estimate for KD is obtained as P′, n, B, and KD are allowed to float freely in the nonlinear analysis. Table 20 summarizes the affinity estimates for the anti-DLL4 antibodies for human and cynomolgus monkey DLL4 derived using the methodology described above

B1: 20G8 (antibody, IgG4, V domains shown)
VH: QVQLVQSGAEVKKPGASVKVSCKASGYTFTSYGISWVRQAPGQGLEWMGWISVYNGNTNYAQKLQGRVTMTTDTSTSTAYMEVRSLRSDDTAVYYCARDRVPRIPRTTEAFDIWGRGTMVTVCS
VL: QSVLTQPPSASGTPGQRVTISCSGSSSNIGSYYVYWYQQLPGTAPKLLIYRDNQRPSGVPDRFSGSKSGTSASLAIRGLRSDDEADYYCAAWDDSLSGHWVFGGGTKLTVL
notes: Fully human; also used where no isotype is printed
Full length human DLL4 [1]
  % inhibition n = 2: 88%
Full length human DLL4 [2]
  Count: 182
  FL1: 10500
  FL1 x count: 1.9e+06
Full length human DLL4 [3]
  % inhibition at 0.020 nM: -5%
  % inhibition at 0.070 nM: 3%
  % inhibition at 0.21 nM: -4%
  % inhibition at 0.62 nM: -14%
  % inhibition at 1.9 nM: 29%
  % inhibition at 5.6 nM: 114%
  % inhibition at 16.7 nM: 115%
  IC50: 2.02 nM
Human Jagged1 [4]
  Jagged1/mock ratio: 1.12
Human Jagged1 [5]
  Count: 3
  FL1: 1500
  FL1 x count: 4490
Human Jagged1 [6]
  Jagged1/293T X Geo mean: 16
Human Dll1 [7]
  Dll1/293T X Geo mean: 40
Full length human DLL4 [8]
  % inhibition n = 3: 143%
Human Dll1 [9]
  Dll1/mock ratio: 1.34

B2: 21H3RK IgG2 (antibody, V domains shown)
VH: B1 VH with S31N, S35T, L45P, V53A, G66D, M70V, V83L, R106V, R116Q, C123S
VL: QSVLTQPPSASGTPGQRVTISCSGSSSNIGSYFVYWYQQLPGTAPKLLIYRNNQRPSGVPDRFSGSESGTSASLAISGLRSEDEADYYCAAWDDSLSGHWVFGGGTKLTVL
notes: IgG2
Full length human DLL4 [10]
  IC50: 0.75 nM
[11]
  Kd: 0.721 nM
  koff: 0.00016 s⁻¹
  kon: 222000 M⁻¹ s⁻¹
Full length mouse DLL4
  IC50: 15.6 nM
Full length human DLL4 [12]
  Kd: 0.225 nM

B3: 21H3 IgG2 (antibody, V domains shown)
VH: B1 VH with S31N, S35T, L45P, V53A, G66D, M70V, V83L, R106V, R116Q, C123S
VL: B1 VL with Y33F, D52N, K67E, R77S, D82E, K107R
notes: Formatted as IgG2
Full length human DLL4 [10]
  IC50: 0.73 nM
[11]
  Kd: 0.598 nM
  koff: 0.000155 s⁻¹
  kon: 259000 M⁻¹ s⁻¹
Full length mouse DLL4
  IC50: 13.5 nM
Full length human DLL4 [12]
  Kd: 0.32 nM
